Test results as given in paper PMC8117670 (Science (New York, N.Y.), 2021).
Each block holds one binder with its values, some of them ahead of it.

Assays:
Assay in all cases: cryo-EM structure
Med23 = target: T1, Med23 (human, UniProt Q9ULK4 1-1368)
T1 sequence: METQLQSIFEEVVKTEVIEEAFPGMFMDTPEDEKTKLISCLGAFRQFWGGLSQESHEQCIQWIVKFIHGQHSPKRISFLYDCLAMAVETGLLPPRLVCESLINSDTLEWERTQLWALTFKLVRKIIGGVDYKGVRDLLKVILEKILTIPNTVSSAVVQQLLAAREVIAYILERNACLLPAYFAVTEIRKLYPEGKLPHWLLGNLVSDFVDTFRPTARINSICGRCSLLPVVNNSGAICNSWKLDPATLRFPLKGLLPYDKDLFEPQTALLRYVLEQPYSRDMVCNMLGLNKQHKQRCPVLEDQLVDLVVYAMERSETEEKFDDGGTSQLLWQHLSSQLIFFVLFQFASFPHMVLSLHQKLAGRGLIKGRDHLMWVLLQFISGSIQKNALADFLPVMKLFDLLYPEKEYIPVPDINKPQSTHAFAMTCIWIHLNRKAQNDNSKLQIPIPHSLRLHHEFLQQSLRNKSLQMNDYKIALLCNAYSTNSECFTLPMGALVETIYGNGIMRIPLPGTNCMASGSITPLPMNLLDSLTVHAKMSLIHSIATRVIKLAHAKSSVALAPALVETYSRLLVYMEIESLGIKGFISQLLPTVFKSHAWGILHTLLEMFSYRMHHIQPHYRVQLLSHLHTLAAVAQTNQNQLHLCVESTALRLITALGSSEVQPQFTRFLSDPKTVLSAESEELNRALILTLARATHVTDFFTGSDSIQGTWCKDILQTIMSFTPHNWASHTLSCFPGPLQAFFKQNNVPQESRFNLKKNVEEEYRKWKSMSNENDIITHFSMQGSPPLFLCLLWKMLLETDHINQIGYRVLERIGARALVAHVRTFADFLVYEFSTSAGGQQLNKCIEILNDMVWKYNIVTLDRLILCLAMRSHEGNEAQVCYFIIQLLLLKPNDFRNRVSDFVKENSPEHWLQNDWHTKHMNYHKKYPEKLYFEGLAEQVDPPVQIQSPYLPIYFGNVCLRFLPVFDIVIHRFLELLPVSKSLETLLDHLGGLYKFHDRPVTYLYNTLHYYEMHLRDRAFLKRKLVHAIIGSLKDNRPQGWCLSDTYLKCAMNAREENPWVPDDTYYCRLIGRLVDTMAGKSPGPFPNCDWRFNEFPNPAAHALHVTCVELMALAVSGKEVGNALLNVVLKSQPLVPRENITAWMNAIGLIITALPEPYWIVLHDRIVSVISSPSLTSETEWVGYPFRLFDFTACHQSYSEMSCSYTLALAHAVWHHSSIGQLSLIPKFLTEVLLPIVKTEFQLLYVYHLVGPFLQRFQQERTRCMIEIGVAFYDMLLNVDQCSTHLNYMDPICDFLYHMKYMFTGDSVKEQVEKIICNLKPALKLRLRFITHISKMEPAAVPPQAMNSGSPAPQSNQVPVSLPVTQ

Med14 = Med14 (human, UniProt O60244 1-1454)
Med1 = Med1 (human, UniProt Q15648 1-1581)
[1] = target: RPB1, the largest subunit of RNA polymerase II (human, UniProt P24928 1-1970)

Chain of Med1 (Q15648 whole entry): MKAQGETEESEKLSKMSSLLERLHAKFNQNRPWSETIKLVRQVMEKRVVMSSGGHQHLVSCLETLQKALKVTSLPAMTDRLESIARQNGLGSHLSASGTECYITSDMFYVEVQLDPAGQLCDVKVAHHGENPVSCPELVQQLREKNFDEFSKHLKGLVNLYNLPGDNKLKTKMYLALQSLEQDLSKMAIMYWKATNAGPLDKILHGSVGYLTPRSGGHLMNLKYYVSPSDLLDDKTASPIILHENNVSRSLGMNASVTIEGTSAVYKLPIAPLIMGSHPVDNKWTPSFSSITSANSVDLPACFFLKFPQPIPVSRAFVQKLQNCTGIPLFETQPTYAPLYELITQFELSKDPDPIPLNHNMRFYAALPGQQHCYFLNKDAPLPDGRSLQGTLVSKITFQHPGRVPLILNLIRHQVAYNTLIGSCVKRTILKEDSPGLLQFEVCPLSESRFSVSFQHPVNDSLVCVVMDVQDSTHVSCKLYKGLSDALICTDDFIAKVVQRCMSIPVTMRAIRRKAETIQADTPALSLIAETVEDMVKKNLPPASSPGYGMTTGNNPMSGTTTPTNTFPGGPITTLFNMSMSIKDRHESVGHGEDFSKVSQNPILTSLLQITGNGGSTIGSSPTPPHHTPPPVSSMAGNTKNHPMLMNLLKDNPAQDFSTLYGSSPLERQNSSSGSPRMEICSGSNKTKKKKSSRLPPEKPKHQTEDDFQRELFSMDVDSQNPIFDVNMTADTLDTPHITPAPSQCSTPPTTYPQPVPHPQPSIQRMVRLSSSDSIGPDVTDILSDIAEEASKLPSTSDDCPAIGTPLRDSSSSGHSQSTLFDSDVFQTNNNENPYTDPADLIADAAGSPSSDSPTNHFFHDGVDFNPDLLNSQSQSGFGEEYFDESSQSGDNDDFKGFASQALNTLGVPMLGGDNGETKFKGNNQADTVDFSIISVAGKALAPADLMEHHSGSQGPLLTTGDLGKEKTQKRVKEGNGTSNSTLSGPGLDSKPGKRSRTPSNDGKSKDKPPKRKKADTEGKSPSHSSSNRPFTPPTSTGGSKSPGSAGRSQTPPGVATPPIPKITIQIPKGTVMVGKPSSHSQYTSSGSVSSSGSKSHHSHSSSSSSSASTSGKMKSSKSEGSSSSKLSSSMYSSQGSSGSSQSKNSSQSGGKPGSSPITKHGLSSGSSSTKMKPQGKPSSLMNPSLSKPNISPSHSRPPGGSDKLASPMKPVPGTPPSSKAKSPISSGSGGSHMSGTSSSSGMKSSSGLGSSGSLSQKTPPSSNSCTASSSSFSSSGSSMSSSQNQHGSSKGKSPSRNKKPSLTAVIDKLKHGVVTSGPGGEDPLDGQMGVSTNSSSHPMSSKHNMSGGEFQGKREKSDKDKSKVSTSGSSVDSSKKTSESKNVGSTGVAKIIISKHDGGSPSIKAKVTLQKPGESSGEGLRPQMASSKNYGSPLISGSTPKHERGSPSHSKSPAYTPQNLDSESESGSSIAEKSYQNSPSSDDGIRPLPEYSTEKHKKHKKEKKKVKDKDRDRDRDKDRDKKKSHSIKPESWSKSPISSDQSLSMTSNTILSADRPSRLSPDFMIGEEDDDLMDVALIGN
Chain of Med14 (O60244 whole entry): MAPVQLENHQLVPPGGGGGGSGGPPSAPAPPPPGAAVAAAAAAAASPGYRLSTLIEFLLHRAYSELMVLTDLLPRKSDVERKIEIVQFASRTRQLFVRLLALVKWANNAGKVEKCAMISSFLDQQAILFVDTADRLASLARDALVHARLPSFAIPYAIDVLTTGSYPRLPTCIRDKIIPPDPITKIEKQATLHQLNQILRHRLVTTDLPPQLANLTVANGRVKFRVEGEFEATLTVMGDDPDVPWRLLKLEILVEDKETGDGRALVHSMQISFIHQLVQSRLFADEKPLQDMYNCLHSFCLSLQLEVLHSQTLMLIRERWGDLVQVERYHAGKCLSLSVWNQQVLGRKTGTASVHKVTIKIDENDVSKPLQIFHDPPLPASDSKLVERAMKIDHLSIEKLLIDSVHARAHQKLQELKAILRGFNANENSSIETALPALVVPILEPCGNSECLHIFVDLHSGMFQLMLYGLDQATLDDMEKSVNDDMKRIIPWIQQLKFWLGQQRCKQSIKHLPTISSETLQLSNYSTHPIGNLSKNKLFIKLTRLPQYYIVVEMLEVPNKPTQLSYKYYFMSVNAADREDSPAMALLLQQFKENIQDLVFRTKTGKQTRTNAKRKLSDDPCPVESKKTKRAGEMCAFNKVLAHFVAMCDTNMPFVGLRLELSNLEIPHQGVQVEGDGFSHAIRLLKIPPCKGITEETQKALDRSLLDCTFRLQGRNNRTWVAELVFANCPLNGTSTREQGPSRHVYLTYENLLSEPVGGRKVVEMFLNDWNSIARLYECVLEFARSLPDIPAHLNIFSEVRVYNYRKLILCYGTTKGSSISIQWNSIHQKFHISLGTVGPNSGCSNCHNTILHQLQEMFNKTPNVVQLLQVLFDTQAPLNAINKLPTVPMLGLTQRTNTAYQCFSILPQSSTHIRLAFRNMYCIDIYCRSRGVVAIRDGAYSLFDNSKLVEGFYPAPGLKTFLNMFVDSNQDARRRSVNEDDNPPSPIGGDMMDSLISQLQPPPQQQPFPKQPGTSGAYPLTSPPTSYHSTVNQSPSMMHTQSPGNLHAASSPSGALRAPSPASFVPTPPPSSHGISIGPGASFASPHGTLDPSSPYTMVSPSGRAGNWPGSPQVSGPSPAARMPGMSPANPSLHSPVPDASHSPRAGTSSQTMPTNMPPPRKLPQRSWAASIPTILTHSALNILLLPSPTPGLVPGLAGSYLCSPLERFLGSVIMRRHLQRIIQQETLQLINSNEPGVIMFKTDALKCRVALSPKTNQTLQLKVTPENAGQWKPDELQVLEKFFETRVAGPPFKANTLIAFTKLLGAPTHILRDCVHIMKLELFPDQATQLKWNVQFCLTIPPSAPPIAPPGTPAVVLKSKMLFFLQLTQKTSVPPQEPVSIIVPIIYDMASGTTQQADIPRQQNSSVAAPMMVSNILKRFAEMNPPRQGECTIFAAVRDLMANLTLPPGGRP

binding result (Med23): binds
B1: Med25 (natural protein, human)
chain: MVPGSEGPARAGSVVADVVFVIEGTANLGPYFEGLRKHYLLPAIEYFNGGPPAETDFGGDYGGTQYSLVVFNTVDCAPESYVQCHAPTSSAYEFVTWLDGIKFMGGGGESCSLIAEGLSTALQLFDDFKKMREQIGQTHRVCLLICNSPPYLLPAVESTTYSGCTTENLVQQIGERGIHFSIVSPRKLPALRLLFEKAAPPALLEPLQPPTDVSQDPRHMVLVRGLVLPVGGGSAPGPLQSKQPVPLPPAAPSGATLSAAPQQPLPPVPPQYQVPGNLSAAQVAAQNAVEAAKNQKAGLGPRFSPITPLQQAAPGVGPPFSQAPAPQLPPGPPGAPKPPPASQPSLVSTVAPGSGLAPTAQPGAPSMAGTVAPGGVSGPSPAQLGAPALGGQQSVSNKLLAWSGVLEWQEKPKPASVDANTKLTRSLPCQVYVNHGENLKTEQWPQKLIMQLIPQQLLTTLGPLFRNSRMVQFHFTNKDLESLKGLYRIMGNGFAGCVHFPHTAPCEVRVLMLLYSSKKKIFMGLIPYDQSGFVNGIRQVITNHKQVQQQKLEQQQRGMGGQQAPPGLGPILEDQARPSQNLLQLRPPQPQPQGTVGASGATGQPQPQGTAQPPPGAPQGPPGAASGPPPPGPILRPQNPGANPQLRSLLLNPPPPQTGVPPPQASLHHLQPPGAPALLPPPHQGLGQPQLGPPLLHPPPAQSWPAQLPPRAPLPGQMLLSGGPRGPVPQPGLQPSVMEDDILMDLI

binding result (Med14): binds
B2: Med17 (natural protein, human)
chain: MSGVRAVRISIESACEKQVHEVGLDGTETYLPPLSMSQNLARLAQRIDFSQGSGSEEEEAAGTEGDAQEWPGAGSSADQDDEEGVVKFQPSLWPWDSVRNNLRSALTEMCVLYDVLSIVRDKKFMTLDPVSQDALPPKQNPQTLQLISKKKSLAGAAQILLKGAERLTKSVTENQENKLQRDFNSELLRLRQHWKLRKVGDKILGDLSYRSAGSLFPHHGTFEVIKNTDLDLDKKIPEDYCPLDVQIPSDLEGSAYIKVSIQKQAPDIGDLGTVNLFKRPLPKSKPGSPHWQTKLEAAQNVLLCKEIFAQLSREAVQIKSQVPHIVVKNQIISQPFPSLQLSISLCHSSNDKKSQKFATEKQCPEDHLYVLEHNLHLLIREFHKQTLSSIMMPHPASAPFGHKRMRLSGPQAFDKNEINSLQSSEGLLEKIIKQAKHIFLRSRAAATIDSLASRIEDPQIQAHWSNINDVYESSVKVLITSQGYEQICKSIQLQLNIGVEQIRVVHRDGRVITLSYQEQELQDFLLSQMSQHQVHAVQQLAKVMGWQVLSFSNHVGLGPIESIGNASAITVASPSGDYAISVRNGPESGSKIMVQFPRNQCKDLPKSDVLQDNKWSHLRGPFKEVQWNKMEGRNFVYKMELLMSALSPCLL

binding result (Med1): binds
B3: Med9 (natural protein, human)
chain: MASAGVAAGRQAEDVLPPTSDQPLPDTKPLPPPQPPPVPAPQPQQSPAPRPQSPARAREEENYSFLPLVHNIIKCMDKDSPEVHQDLNALKSKFQEMRKLISTMPGIHLSPEQQQQQLQSLREQVRTKNELLQKYKSLCMFEIPKE

binding result [1]: binds
B4: Med31 (natural protein)
chain: MAAAVAMETDDAGNRLRFQLELEFVQCLANPNYLNFLAQRGYFKDKAFVNYLKYLLYWKDPEYAKYLKYPQCLHMLELLQYEHFRKELVNAQCAKFIDEQQILHWQHYSRKRMRLQQALAEQQQQNNTSGK

binding result (Med1): binds
B5: Med4 (natural protein, human)
chain: MAASSSGEKEKERLGGGLGVAGGNSTRERLLSALEDLEVLSRELIEMLAISRNQKLLQAGEENQVLELLIHRDGEFQELMKLALNQGKIHHEMQVLEKEVEKRDSDIQQLQKQLKEAEQILATAVYQAKEKLKSIEKARKGAISSEEIIKYAHRISASNAVCAPLTWVPGDPRRPYPTDLEMRSGLLGQMNNPSTNGVNGHLPGDALAAGRLPDVLAPQYPWQSNDMSMNMLPPNHSSDFLLEPPGHNKENEDDVEIMSTDSSSSSSESD

binding result (Med1): binds
B6: Med24 (natural protein, human)
chain: MKVVNLKQAILQAWKERWSDYQWAINMKKFFPKGATWDILNLADALLEQAMIGPSPNPLILSYLKYAISSQMVSYSSVLTAISKFDDFSRDLCVQALLDIMDMFCDRLSCHGKAEECIGLCRALLSALHWLLRCTAASAERLREGLEAGTPAAGEKQLAMCLQRLEKTLSSTKNRALLHIAKLEEASSWTAIEHSLLKLGEILANLSNPQLRSQAEQCGTLIRSIPTMLSVHAEQMHKTGFPTVHAVILLEGTMNLTGETQSLVEQLTMVKRMQHIPTPLFVLEIWKACFVGLIESPEGTEELKWTAFTFLKIPQVLVKLKKYSHGDKDFTEDVNCAFEFLLKLTPLLDKADQRCNCDCTNFLLQECGKQGLLSEASVNNLMAKRKADREHAPQQKSGENANIQPNIQLILRAEPTVTNILKTMDADHSKSPEGLLGVLGHMLSGKSLDLLLAAAAATGKLKSFARKFINLNEFTTYGSEESTKPASVRALLFDISFLMLCHVAQTYGSEVILSESRTGAEVPFFETWMQTCMPEEGKILNPDHPCFRPDSTKVESLVALLNNSSEMKLVQMKWHEACLSISAAILEILNAWENGVLAFESIQKITDNIKGKVCSLAVCAVAWLVAHVRMLGLDEREKSLQMIRQLAGPLFSENTLQFYNERVVIMNSILERMCADVLQQTATQIKFPSTGVDTMPYWNLLPPKRPIKEVLTDIFAKVLEKGWVDSRSIHIFDTLLHMGGVYWFCNNLIKELLKETRKEHTLRAVELLYSIFCLDMQQVTLVLLGHILPGLLTDSSKWHSLMDPPGTALAKLAVWCALSSYSSHKGQASTRQKKRHREDIEDYISLFPLDDVQPSKLMRLLSSNEDDANILSSPTDRSMSSSLSASQLHTVNMRDPLNRVLANLFLLISSILGSRTAGPHTQFVQWFMEECVDCLEQGGRGSVLQFMPFTTVSELVKVSAMSSPKVVLAITDLSLPLGRQVAAKAIAAL
